Experimental data taken from patent US20230203178A1 (SICHUAN KELUN BIOTECH BIOPHARMACEUTICAL, published 2023).

T1: BCMA expressed on target cells (CHO-K1-BCMA recombinant cell line; MM.1S; RPMI8226) (human, UniProt Q02223 1-184)
T1 sequence (looked up): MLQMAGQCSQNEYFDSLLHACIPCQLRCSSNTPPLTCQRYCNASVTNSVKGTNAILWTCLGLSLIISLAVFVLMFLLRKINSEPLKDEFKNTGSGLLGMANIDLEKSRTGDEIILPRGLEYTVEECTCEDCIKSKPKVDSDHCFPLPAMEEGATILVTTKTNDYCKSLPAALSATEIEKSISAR

T2: human BCMA (antigen) (human, UniProt Q02223 1-54, limits assumed)
T2 construct: Antigen coupled to the CM5 chip in SPR; also called B-cell maturation antigen; TNFRF17
T2 sequence (looked up): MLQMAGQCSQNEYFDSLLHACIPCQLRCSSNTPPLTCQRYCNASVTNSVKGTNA

T3: human CD19 (antigen) (human, UniProt P15391 20-291, limits assumed)
T3 sequence (looked up): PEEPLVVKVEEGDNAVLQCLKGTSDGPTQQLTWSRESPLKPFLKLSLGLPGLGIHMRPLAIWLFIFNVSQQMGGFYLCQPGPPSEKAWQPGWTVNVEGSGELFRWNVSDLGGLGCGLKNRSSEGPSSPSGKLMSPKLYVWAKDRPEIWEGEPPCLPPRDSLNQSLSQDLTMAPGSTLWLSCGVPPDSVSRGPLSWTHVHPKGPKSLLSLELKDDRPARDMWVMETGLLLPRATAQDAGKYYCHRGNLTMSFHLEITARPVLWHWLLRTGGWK

T4: CD19 expressed on Nalm6 cells (UniProt P15391 20-556, limits assumed)
T4 sequence (looked up): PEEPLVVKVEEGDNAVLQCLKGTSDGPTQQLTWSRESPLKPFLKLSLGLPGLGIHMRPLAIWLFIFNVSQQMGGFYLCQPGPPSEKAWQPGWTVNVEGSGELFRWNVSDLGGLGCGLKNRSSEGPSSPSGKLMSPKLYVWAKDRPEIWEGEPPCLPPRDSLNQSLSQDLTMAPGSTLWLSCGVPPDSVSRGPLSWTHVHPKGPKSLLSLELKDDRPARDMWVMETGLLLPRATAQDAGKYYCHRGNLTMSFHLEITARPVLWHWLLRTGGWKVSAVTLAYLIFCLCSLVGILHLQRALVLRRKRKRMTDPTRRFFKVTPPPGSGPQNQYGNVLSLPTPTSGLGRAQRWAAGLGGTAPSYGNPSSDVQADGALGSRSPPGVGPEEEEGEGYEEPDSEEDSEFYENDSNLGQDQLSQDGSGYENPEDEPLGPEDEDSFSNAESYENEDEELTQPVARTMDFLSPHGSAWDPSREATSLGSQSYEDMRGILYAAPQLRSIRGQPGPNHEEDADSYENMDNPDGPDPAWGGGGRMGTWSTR

B1: H-BCMA CAR (other)
chain: DIVMTQSPLSLPVTPGEPASISCRSSQSLVHSNGNTFLHWYLQKPGQSPQLLIYKVSNRFSGVPDRFSGSGSGTDFTLKISRVEAEDVGVYYCMQSTHVLTFGGGTKLEIKRAGGGGSGGGGSGGGGSQVQLVQSGAEVKKPGASVKVSCKASGYTFTDYLMHWVRQAPGQGLEWMGWINTETGEPTYADDFKGRVTMTRDTSTSTVYMELSSLRSEDTAVYYCAPSLYYGYSWFTYWGQGTLVTVSTTTPAPRPPTPAPTIASQPLSLRPEACRPAAGGAVHTRGLDFACDIYIWAPLAGTCGVLLLSLVITLYCKRGRKKLLYIFKQPFMRPVQTTQEEDGCSCRFPEEEEGGCELRVKFSRSADAPAYKQGQNQLYNELNLGRREEYDVLDKRRGRDPEMGGKPRRKNPQEGLYNELQKDKMAEAYSEIGMKGERRRGKGHDGLYQGLSTATKDTYDALHMQALPPR
notes: Chimeric antigen receptor on human T cells; built here from its parts without the signal peptide; also called H-BCMA CAR-T; BCMA CAR-T
B2: TanCAR 01 (other)
chain: DIVMTQSPLSLPVTPGEPASISCRSSQSLVHSNGNTFLHWYLQKPGQSPQLLIYKVSNRFSGVPDRFSGSGSGTDFTLKISRVEAEDVGVYYCMQSTHVLTFGGGTKLEIKRAGGGGSGGGGSGGGGSQVQLVQSGAEVKKPGASVKVSCKASGYTFTDYLMHWVRQAPGQGLEWMGWINTETGEPTYADDFKGRVTMTRDTSTSTVYMELSSLRSEDTAVYYCAPSLYYGYSWFTYWGQGTLVTVSGGGGSGGGGSGGGGSGGGGSQVTLRESGPALVKPTQTLTLTCTFSGVSLPDYGVSWIRQPPGKALEWLAVIWGSETTYYNSALKSRLTISKDTSKNQVVLTMTNMDPVDTATYYCAKHYYYGGSYAMDYWGQGTTVTVSSGGGGSGGGGSGGGGSEIVLTQSPATLSLSPGERATLSCRASQDISKYLNWYQQKPGQAPRLLIYHTSRLHSGIPDRFSGSGSGTDFTLTISRLEPEDIAVYYCQQGNTLPYTFGQGTKLEITTTPAPRPPTPAPTIASQPLSLRPEACRPAAGGAVHTRGLDFACDIYIWAPLAGTCGVLLLSLVITLYCKRGRKKLLYIFKQPFMRPVQTTQEEDGCSCRFPEEEEGGCELRVKFSRSADAPAYKQGQNQLYNELNLGRREEYDVLDKRRGRDPEMGGKPRRKNPQEGLYNELQKDKMAEAYSEIGMKGERRRGKGHDGLYQGLSTATKDTYDALHMQALPPR
notes: Tandem bispecific chimeric antigen receptor on human T cells; built here from its parts without the signal peptide; also called TanCAR 01 CAR-T
B3: TanCAR 03 (other)
chain: QVTLRESGPALVKPTQTLTLTCTFSGVSLPDYGVSWIRQPPGKALEWLAVIWGSETTYYNSALKSRLTISKDTSKNQVVLTMTNMDPVDTATYYCAKHYYYGGSYAMDYWGQGTTVTVSSGGGGSGGGGSGGGGSEIVLTQSPATLSLSPGERATLSCRASQDISKYLNWYQQKPGQAPRLLIYHTSRLHSGIPDRFSGSGSGTDFTLTISRLEPEDIAVYYCQQGNTLPYTFGQGTKLEIGGGGSGGGGSGGGGSGGGGSDIVMTQSPLSLPVTPGEPASISCRSSQSLVHSNGNTFLHWYLQKPGQSPQLLIYKVSNRFSGVPDRFSGSGSGTDFTLKISRVEAEDVGVYYCMQSTHVLTFGGGTKLEIKRAGGGGSGGGGSGGGGSQVQLVQSGAEVKKPGASVKVSCKASGYTFTDYLMHWVRQAPGQGLEWMGWINTETGEPTYADDFKGRVTMTRDTSTSTVYMELSSLRSEDTAVYYCAPSLYYGYSWFTYWGQGTLVTVSTTTPAPRPPTPAPTIASQPLSLRPEACRPAAGGAVHTRGLDFACDIYIWAPLAGTCGVLLLSLVITLYCKRGRKKLLYIFKQPFMRPVQTTQEEDGCSCRFPEEEEGGCELRVKFSRSADAPAYKQGQNQLYNELNLGRREEYDVLDKRRGRDPEMGGKPRRKNPQEGLYNELQKDKMAEAYSEIGMKGERRRGKGHDGLYQGLSTATKDTYDALHMQALPPR
notes: Tandem bispecific chimeric antigen receptor on human T cells; built here from its parts without the signal peptide; also called TanCAR 03 CAR-T
B4: TanCAR 04 (other)
chain: QVTLRESGPALVKPTQTLTLTCTFSGVSLPDYGVSWIRQPPGKALEWLAVIWGSETTYYNSALKSRLTISKDTSKNQVVLTMTNMDPVDTATYYCAKHYYYGGSYAMDYWGQGTTVTVSSGGGGSGGGGSGGGGSEIVLTQSPATLSLSPGERATLSCRASQDISKYLNWYQQKPGQAPRLLIYHTSRLHSGIPDRFSGSGSGTDFTLTISRLEPEDIAVYYCQQGNTLPYTFGQGTKLEIEAAAKEAAAKEAAAKDIVMTQSPLSLPVTPGEPASISCRSSQSLVHSNGNTFLHWYLQKPGQSPQLLIYKVSNRFSGVPDRFSGSGSGTDFTLKISRVEAEDVGVYYCMQSTHVLTFGGGTKLEIKRAGGGGSGGGGSGGGGSQVQLVQSGAEVKKPGASVKVSCKASGYTFTDYLMHWVRQAPGQGLEWMGWINTETGEPTYADDFKGRVTMTRDTSTSTVYMELSSLRSEDTAVYYCAPSLYYGYSWFTYWGQGTLVTVSTTTPAPRPPTPAPTIASQPLSLRPEACRPAAGGAVHTRGLDFACDIYIWAPLAGTCGVLLLSLVITLYCKRGRKKLLYIFKQPFMRPVQTTQEEDGCSCRFPEEEEGGCELRVKFSRSADAPAYKQGQNQLYNELNLGRREEYDVLDKRRGRDPEMGGKPRRKNPQEGLYNELQKDKMAEAYSEIGMKGERRRGKGHDGLYQGLSTATKDTYDALHMQALPPR
notes: Tandem bispecific chimeric antigen receptor on human T cells; built here from its parts without the signal peptide; also called TanCAR 04 CAR-T
B5: H-CD19 CAR (other)
chain: QVTLRESGPALVKPTQTLTLTCTFSGVSLPDYGVSWIRQPPGKALEWLAVIWGSETTYYNSALKSRLTISKDTSKNQVVLTMTNMDPVDTATYYCAKHYYYGGSYAMDYWGQGTTVTVSSGGGGSGGGGSGGGGSEIVLTQSPATLSLSPGERATLSCRASQDISKYLNWYQQKPGQAPRLLIYHTSRLHSGIPDRFSGSGSGTDFTLTISRLEPEDIAVYYCQQGNTLPYTFGQGTKLEITTTPAPRPPTPAPTIASQPLSLRPEACRPAAGGAVHTRGLDFACDIYIWAPLAGTCGVLLLSLVITLYCKRGRKKLLYIFKQPFMRPVQTTQEEDGCSCRFPEEEEGGCELRVKFSRSADAPAYKQGQNQLYNELNLGRREEYDVLDKRRGRDPEMGGKPRRKNPQEGLYNELQKDKMAEAYSEIGMKGERRRGKGHDGLYQGLSTATKDTYDALHMQALPPR
notes: Chimeric antigen receptor on human T cells; built here from its parts without the signal peptide; also called H-CD19 CAR-T; hCD19 CAR-T

Each binder was assayed against T1, BCMA expressed on target cells … (assay: cell-based or functional assay).

Row | Binder | lysis rate of CHO-K1-BCMA-luc cells by CAR-T cells, ratio 0.25:1 | lysis rate of CHO-K1-BCMA-luc cells by CAR-T cells, ratio 0.5:1 | lysis rate of CHO-K1-BCMA-luc cells by CAR-T cells, ratio 1:1 | lysis rate of CHO-K1-BCMA-luc cells by CAR-T cells, ratio 2:1
1 | B1 | 0% | 27% | 40.7% | 77.9%
2 | B2 | 31.3% | 34.3% | 63.2% | 71%
3 | B3 | 17.8% | 27.6% | 40.5% | 52.1%
4 | B4 | 36.4% | 52.6% | 68.9% | 84.1%

Each binder was assayed against T2, human BCMA (antigen) (assay: flow cytometry of lentivirus-transduced T cells labelled with antigen, 48 h after transduction; percent positive cells).
Description: (§1) The nucleic acid sequence encoding the CAR was expressed under the drive of a promoter, therefore the lentivirus-transfected T cells could be labeled with an antigen or anti-CD19 antibody and measured by flow cytometry, to reflect the expression level of the CAR on the surface of the T cells.

Row | Binder | Positive rate of binding to BCMA
5 | B1 | 26.9%
6 | B5 | 0.98%
7 | B2 | 11.3%
8 | B3 | 6.07%
9 | B4 | 15.9%

These binders were tested against T3, human CD19 (antigen) (assay: flow cytometry of lentivirus-transduced T cells labelled with antigen or anti-CD19 antibody, 48 h after transduction; percent positive cells).
Description: as §1

Row | Binder | Positive rate of binding to CD19
10 | B1 | 0.31%
11 | B5 | 14.7%
12 | B2 | 10.6%
13 | B3 | 8.99%
14 | B4 | 16.1%

Each binder was assayed against T4, CD19 expressed on Nalm6 cells (assay: cell-based or functional assay).

Row | Binder | lysis rate of Nalm6-luc cells by CAR-T cells, ratio 0.25:1 | lysis rate of Nalm6-luc cells by CAR-T cells, ratio 0.5:1 | lysis rate of Nalm6-luc cells by CAR-T cells, ratio 1:1 | lysis rate of Nalm6-luc cells by CAR-T cells, ratio 2:1
15 | B5 | 48% | 55% | 72.8% | 86.4%
16 | B2 | 46.1% | 40% | 56.8% | 80.6%
17 | B3 | 54.3% | 57.7% | 72.1% | 89.1%
18 | B4 | 72.7% | 55.8% | 68.9% | 84.1%
